Results published in the supplement of paper PMC10567573.

B1: TSN (parent)
chain: FLAAEQDIREEIRKVVQSLEQTAR

Variants of: B1
Assay: protein stability index of a GFP-peptide fusion (GPS, HEK-293T) (PSI 1-6); higher = more stable
Settings: c terminus: a fixed tail appended
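Note: lentivirally expressed fusions sorted by FACS into six bins by GFP to DsRed ratio, PSI derived from sequencing read proportions per bin multiplied by bin number.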

Protein stability index of substitutions, site by site:
I12: R 4.3, L 2.63, P 4.45, E 4.52, A 2.32, K 3.98, F 2.89, S 2.59, D 4.64, H 4.29, T 3.07, Q 4.06, W 2.89, M 1.94, V 2.1, G 3.81, C 1.58, Y 3.2, N 4.68
E5: D 2.27, S 2.52, F 2.5, T 3.32, I 2.81, L 3.1, C 2.25, V 3.62, G 2.87, H 2.26, W 2.58, Q 2.71, M 2.79, Y 1.76, A 2.69, P 3, N 3.04, R 2.66
D7: T 1.75, L 3.27, M 1.73, S 1.79, E 1.89, H 2.78, Q 1.3, G 2.22, K 1.51, A 2.18, F 2.52, W 2.21, N 2.05, V 2.13, R 2.35, Y 2.44, I 2.93, P 2.22, C 2.28
Q21: A 2.14, C 2.01, D 1.78
I8: H 3.17, D 3.44, N 4.12, S 3.33, Q 3.16, A 3.02, Y 2.42, V 2.17, G 4.12, R 3.15, L 2.02, P 3.41, C 2.56, T 2.78, K 2.56, W 2.65, F 2.57, M 1.73, E 3.64
V16: Y 2.83, S 1.93, K 2.38, Q 2.35, A 2.3, C 2.13, M 1.73, R 2.15, I 1.86, G 3.36, L 2.2, F 2.77, D 3.78, T 1.68, N 3.03, E 2.21, H 2.26, W 1.74, P 3.24
R9: A 1.48, Y 2.29, T 2.06, H 1.49, S 2.26, P 3.1, G 3.12, V 1.75, F 2.4, C 1.43, N 2.28, I 1.84, E 1.69, M 2.11, D 2.31, W 1.64, L 2.26, K 2.69, Q 2.04
K14: N 2.52, R 3.3, W 1.77, A 2.08, Q 2.05, S 2.07, Y 2.3, T 2.25, H 1.98, E 2.36, C 2.07, L 2.13, D 3.41, F 1.48, M 2.24, I 1.39, G 2.03, V 1.83, P 3.76
E10: G 2.92, K 2.15, T 2.83, V 2.39, W 2.08, Q 1.85, I 1.53, M 1.88, N 2.12, C 2.47, R 2.06, S 2.33, F 1.35, Y 1.96, L 1.96, P 3.21, H 2.5, D 1.63, A 2.11
V15: F 2.96, D 3.62, I 2.19, H 2.8, T 2.61, G 3.29, Q 3.54, K 3.37, N 3.76, S 3.07, P 3, E 4.34, Y 3.44, L 2.48, R 3.31, W 2.4, C 2.56, M 2.17, A 3.48
E11: C 2.21, V 1.95, Y 1.76, G 2.68, N 3.58, P 3.15, A 2.02, L 2.19, I 1.72, W 1.59, M 1.9, F 1.59, S 2.47, T 2.43, H 2.58, Q 2.29, K 2.65, R 2.89, D 2.77
E20: I 2.05, K 2.29, R 2.44, D 2.77, Q 2.35, A 3.05, N 2.08, V 2.29, W 2.64, H 2.55, S 2.57, P 3.47, G 2.28, L 2.13, C 2.57, F 2.73, T 2.3, Y 2.07, M 2.33
R13: F 1.55, N 2.16, Y 2.73, T 2.82, W 2.18, G 1.94, D 1.84, L 1.83, P 3.64, K 1.89, H 2.7, Q 2.14, S 2.12, E 1.89, C 1.94, M 2.07, A 1.94, I 1.43, V 1.66
Q17: N 2.15, V 1.87, F 1.58, M 2.6, Y 1.6, G 1.92, T 1.84, E 1.77, C 2.3, K 2.52, P 3.32, H 1.98, W 1.72, A 2.47, I 2.06, D 1.78, L 2.42, R 2.02, S 2.78
A3: L 2.33, S 2.5, T 2, N 1.88, M 1.72, Y 2.03, Q 1.73, R 2.56, P 2.17, V 1.88, W 1.5
A4: M 1.69, I 2.08, K 1.71, Q 2.09, F 2.71, E 2.51, G 2.04, R 1.73, D 2.11, L 2.29, Y 2.03, P 2.01, N 1.52, S 2.54, T 2.13, V 1.93, H 1.57
S18: F 1.39, V 2.52, T 2.18, G 1.7, E 2.54, D 2.31, Y 1.57, C 2.28, L 2.22, K 2.35, N 2.25, Q 2.24, P 2.3, I 1.92, H 1.71, M 2.22, A 1.67, R 2.27, W 1.62
L19: I 2.41, N 3.8, P 3.9, W 3.12, E 4.16, D 3.6, G 3.51, Y 3.01, F 2.14, R 3.38, C 4.16, S 3.33, H 2.96, T 3.76, M 2.33, A 3.72, V 3.02, Q 3.39, K 3.44
Q6: M 1.86, V 1.79, K 1.78, T 1.46, P 2.85, I 2.1, N 1.91, C 1.65, L 1.99, Y 2.09, F 1.87, H 1.63, R 2.53, E 2.85, S 2.25, G 1.84, W 2.75, D 1.85, A 2.01
